Measurements reported in paper PMC9482650, “Quantitative fragmentomics allow affinity mapping of interactomes” (Nature Communications, 2022).

Legend:
Experiment in all cases: holdup assay
Parameters in all cases: key: below the threshold = too weak to quantify, mostly under pKd 3.1 to 4
Conditions in all cases: plain residues with an end cap or a label only (N-terminal biotin on a linker: ado-ado)
CASK, O14936 = molecular target: CASK, O14936
DFNB31_3, Q9P202 = molecular target: T1, DFNB31_3, Q9P202
T1 sequence (Q9P202 811-907, limits assumed, looked up): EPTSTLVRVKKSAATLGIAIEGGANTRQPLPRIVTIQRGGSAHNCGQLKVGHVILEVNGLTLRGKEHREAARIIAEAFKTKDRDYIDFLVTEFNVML

DLG1_1, Q12959 = molecular target: DLG1_1, Q12959
DLG1_2, Q12959 = molecular target: DLG1_2, Q12959
DLG1_3, Q12959 = molecular target: DLG1_3, Q12959
DLG3_1, Q92796 = molecular target: T2, DLG3_1, Q92796
T2 sequence (Q92796 125-227, limits assumed, looked up): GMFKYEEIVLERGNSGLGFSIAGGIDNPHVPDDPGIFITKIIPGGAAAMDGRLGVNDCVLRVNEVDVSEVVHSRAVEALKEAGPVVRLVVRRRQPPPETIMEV

FRMPD2_3, Q68DX3 = molecular target: FRMPD2_3, Q68DX3
FRMPD2_3, Q68DX3, sequence (Q68DX3 1073-1166): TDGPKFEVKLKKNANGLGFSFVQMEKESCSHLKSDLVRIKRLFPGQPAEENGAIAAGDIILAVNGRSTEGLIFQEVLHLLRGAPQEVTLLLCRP

FRMPD3, Q5JV73 = molecular target: FRMPD3, Q5JV73
FRMPD3, Q5JV73, sequence (Q5JV73 12-100): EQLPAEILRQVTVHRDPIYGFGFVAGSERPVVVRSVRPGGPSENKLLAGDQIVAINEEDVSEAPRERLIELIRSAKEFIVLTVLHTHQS

GOPC, Q9HD26 = molecular target: GOPC, Q9HD26
GRASP, Q7Z6J2 = molecular target: GRASP, Q7Z6J2
GRASP, Q7Z6J2, sequence (Q7Z6J2 96-193): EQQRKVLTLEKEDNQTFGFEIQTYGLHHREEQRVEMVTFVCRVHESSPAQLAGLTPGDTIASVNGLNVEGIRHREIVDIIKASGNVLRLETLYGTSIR

GRID2IP_2, A4D2P6 = molecular target: GRID2IP_2, A4D2P6
GRID2IP_2, A4D2P6, sequence (A4D2P6 272-370): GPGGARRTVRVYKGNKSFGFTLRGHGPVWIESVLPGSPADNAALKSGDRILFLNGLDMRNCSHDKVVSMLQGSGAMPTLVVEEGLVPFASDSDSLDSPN

GRIP2_5, Q9C0E4 = molecular target: GRIP2_5, Q9C0E4
GRIP2_5, Q9C0E4, sequence (Q9C0E4 544-642): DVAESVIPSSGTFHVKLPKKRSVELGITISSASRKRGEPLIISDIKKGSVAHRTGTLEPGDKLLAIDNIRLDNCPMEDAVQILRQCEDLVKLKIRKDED

GRIP2_6, Q9C0E4 = molecular target: GRIP2_6, Q9C0E4
GRIP2_6, Q9C0E4, sequence (Q9C0E4 648-740): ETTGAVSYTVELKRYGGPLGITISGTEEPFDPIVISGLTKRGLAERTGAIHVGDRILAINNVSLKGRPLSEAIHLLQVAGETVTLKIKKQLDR

HTRA2, O43464 = molecular target: HTRA2, O43464
HTRA2, O43464, sequence (O43464 355-458): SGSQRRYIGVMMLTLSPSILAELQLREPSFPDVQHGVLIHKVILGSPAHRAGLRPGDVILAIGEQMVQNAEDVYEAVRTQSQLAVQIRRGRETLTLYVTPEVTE

IL16_3, Q14005 = molecular target: IL16_3, Q14005
IL16_3, Q14005, sequence (Q14005 1107-1207): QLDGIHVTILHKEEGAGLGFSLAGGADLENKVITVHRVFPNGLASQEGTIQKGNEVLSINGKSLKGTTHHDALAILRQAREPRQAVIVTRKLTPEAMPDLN

LIN7A, O14910 = molecular target: T3, LIN7A, O14910
T3 sequence (O14910 103-200, limits assumed, looked up): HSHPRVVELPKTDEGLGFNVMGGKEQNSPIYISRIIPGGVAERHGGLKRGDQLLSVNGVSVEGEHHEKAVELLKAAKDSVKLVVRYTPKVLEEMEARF

MAGI2_2, Q86UL8 = molecular target: MAGI2_2, Q86UL8
MAGI2_2, Q86UL8, sequence (Q86UL8 410-522): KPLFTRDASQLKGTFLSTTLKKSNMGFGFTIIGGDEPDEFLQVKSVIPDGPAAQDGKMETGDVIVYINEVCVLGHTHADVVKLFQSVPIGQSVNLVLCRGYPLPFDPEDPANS

MAST1, Q9Y2H9 = molecular target: MAST1, Q9Y2H9
MAST1, Q9Y2H9, sequence (Q9Y2H9 962-1065): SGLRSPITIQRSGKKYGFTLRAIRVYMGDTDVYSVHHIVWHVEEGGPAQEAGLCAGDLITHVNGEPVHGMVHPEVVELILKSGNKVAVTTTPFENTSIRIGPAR

MPDZ_5, O75970 = molecular target: T4, MPDZ_5, O75970
T4 sequence (O75970 695-796, limits assumed, looked up): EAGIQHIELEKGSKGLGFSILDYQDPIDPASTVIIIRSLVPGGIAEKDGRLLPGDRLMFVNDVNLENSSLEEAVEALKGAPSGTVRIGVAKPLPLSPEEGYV

MPP6, Q9NZW5 = molecular target: T5, MPP6, Q9NZW5
T5 sequence (Q9NZW5 125-219, limits assumed, looked up): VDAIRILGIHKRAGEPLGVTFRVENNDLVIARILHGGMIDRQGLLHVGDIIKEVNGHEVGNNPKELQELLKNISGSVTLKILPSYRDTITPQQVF

NHERF2_2, Q15599 = molecular target: NHERF2_2, Q15599
NHERF2_2, Q15599, sequence (Q15599 142-238): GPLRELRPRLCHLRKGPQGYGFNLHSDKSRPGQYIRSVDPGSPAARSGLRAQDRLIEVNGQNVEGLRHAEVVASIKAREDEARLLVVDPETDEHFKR

NHERF3_1, Q5T2W1 = molecular target: T6, NHERF3_1, Q5T2W1
T6 sequence (Q5T2W1 4-100, limits assumed, looked up): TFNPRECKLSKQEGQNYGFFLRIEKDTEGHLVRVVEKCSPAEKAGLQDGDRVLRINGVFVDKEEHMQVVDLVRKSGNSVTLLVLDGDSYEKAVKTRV

NHERF3_4, Q5T2W1 = molecular target: T7, NHERF3_4, Q5T2W1
T7 sequence (Q5T2W1 373-468, limits assumed, looked up): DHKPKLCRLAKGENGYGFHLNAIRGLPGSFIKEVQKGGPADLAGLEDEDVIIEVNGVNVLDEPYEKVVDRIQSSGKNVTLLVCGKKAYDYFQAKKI

PCLO, Q9Y6V0 = molecular target: T8, PCLO, Q9Y6V0
T8 sequence (Q9Y6V0 4491-4600, limits assumed, looked up): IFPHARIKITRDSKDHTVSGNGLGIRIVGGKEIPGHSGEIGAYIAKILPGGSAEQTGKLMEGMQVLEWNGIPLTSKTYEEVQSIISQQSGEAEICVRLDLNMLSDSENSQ

PDZD2_2, O15018 = molecular target: T9, PDZD2_2, O15018
T9 sequence (O15018 329-429, limits assumed, looked up): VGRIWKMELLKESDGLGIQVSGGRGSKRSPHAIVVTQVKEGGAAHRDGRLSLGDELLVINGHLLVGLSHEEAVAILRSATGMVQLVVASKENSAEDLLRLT

SIPA1L2, Q9P2F8 = molecular target: T10, SIPA1L2, Q9P2F8
T10 sequence (Q9P2F8 945-1036, limits assumed, looked up): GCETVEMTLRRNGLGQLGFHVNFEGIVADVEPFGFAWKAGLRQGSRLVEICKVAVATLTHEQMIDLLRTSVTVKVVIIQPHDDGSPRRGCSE

SNTA1, Q13424 = molecular target: T11, SNTA1, Q13424
T11 sequence (Q13424 82-180, limits assumed, looked up): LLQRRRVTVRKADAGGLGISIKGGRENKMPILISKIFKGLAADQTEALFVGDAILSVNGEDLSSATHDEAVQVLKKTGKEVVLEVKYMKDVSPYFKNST

CASK, O14936, sequence (O14936 487-570): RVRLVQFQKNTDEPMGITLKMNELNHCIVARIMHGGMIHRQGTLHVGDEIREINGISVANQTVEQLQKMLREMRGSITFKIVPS

pKd (CASK, O14936)	pKd (DFNB31_3, Q9P202)	pKd (DLG1_1, Q12959)	pKd (DLG1_2, Q12959)	pKd (DLG1_3, Q12959)	pKd (DLG3_1, Q92796)	pKd (FRMPD2_3, Q68DX3)	pKd (FRMPD3, Q5JV73)	pKd (GOPC, Q9HD26)	pKd (GRASP, Q7Z6J2)	pKd (GRID2IP_2, A4D2P6)	pKd (GRIP2_5, Q9C0E4)	pKd (GRIP2_6, Q9C0E4)	pKd (HTRA2, O43464)	pKd (IL16_3, Q14005)	pKd (LIN7A, O14910)	pKd (MAGI2_2, Q86UL8)	pKd (MAST1, Q9Y2H9)	pKd (MPDZ_5, O75970)	pKd (MPP6, Q9NZW5)	other results	Binder
below the threshold	below the threshold	3.83	4.06	3.56	below the threshold	below the threshold	below the threshold	3.72	4	3.63	below the threshold	below the threshold	below the threshold	below the threshold	below the threshold	4	4.37	below the threshold	below the threshold	pKd (NHERF2_2, Q15599): below the threshold; pKd (NHERF3_1, Q5T2W1): below the threshold; pKd (NHERF3_4, Q5T2W1): below the threshold; pKd (PCLO, Q9Y6V0): below the threshold; pKd (PDZD2_2, O15018): 4.57; pKd (SIPA1L2, Q9P2F8): below the threshold; pKd (SNTA1, Q13424): 3.99	KLQNPNQSVV [TYRP1, P17643]
4.83	3.54	below the threshold	below the threshold	below the threshold	below the threshold	3.58	4.15	below the threshold	3.53	below the threshold	below the threshold	3.79	3.96	below the threshold	below the threshold	below the threshold	below the threshold	below the threshold	4.01	pKd (NHERF2_2, Q15599): below the threshold; pKd (NHERF3_1, Q5T2W1): below the threshold; pKd (NHERF3_4, Q5T2W1): below the threshold; pKd (PCLO, Q9Y6V0): below the threshold; pKd (PDZD2_2, O15018): 4.57; pKd (SIPA1L2, Q9P2F8): below the threshold; pKd (SNTA1, Q13424): below the threshold	VCMGDHWFDV [PRKN, O60260]
below the threshold	below the threshold	4.07	4.65	below the threshold	3.99	below the threshold	3.71	below the threshold	3.76	below the threshold	below the threshold	below the threshold	4.12	below the threshold	below the threshold	below the threshold	3.9	below the threshold	below the threshold	pKd (NHERF2_2, Q15599): 3.84; pKd (NHERF3_1, Q5T2W1): below the threshold; pKd (NHERF3_4, Q5T2W1): below the threshold; pKd (PCLO, Q9Y6V0): below the threshold; pKd (PDZD2_2, O15018): 5.99; pKd (SIPA1L2, Q9P2F8): below the threshold; pKd (SNTA1, Q13424): 4.17	HYPASPDSWV [CTNND2, Q9UQB3]
below the threshold	below the threshold	3.71	below the threshold	3.76	below the threshold	below the threshold	below the threshold	below the threshold	3.48	4.08	below the threshold	below the threshold	below the threshold	below the threshold	below the threshold	below the threshold	4.14	below the threshold	below the threshold	pKd (NHERF2_2, Q15599): below the threshold; pKd (NHERF3_1, Q5T2W1): below the threshold; pKd (NHERF3_4, Q5T2W1): below the threshold; pKd (PCLO, Q9Y6V0): below the threshold; pKd (PDZD2_2, O15018): below the threshold; pKd (SIPA1L2, Q9P2F8): below the threshold; pKd (SNTA1, Q13424): below the threshold	QRYPGNQTTC [CCL24, O00175]
below the threshold	below the threshold	4.18	4.55	3.58	3.84	below the threshold	below the threshold	3.76	4.28	4.05	below the threshold	below the threshold	below the threshold	below the threshold	below the threshold	4.73	4.35	3.66	below the threshold	pKd (NHERF2_2, Q15599): below the threshold; pKd (NHERF3_1, Q5T2W1): 3.87; pKd (NHERF3_4, Q5T2W1): below the threshold; pKd (PCLO, Q9Y6V0): below the threshold; pKd (PDZD2_2, O15018): 4.99; pKd (SIPA1L2, Q9P2F8): below the threshold; pKd (SNTA1, Q13424): 3.67	HLSTRQGTCV [ATRNL1, Q5VV63]
